Assays:
[1] = target: fibrinogen binding protein encoded from pSE100 (581 aa part of protein FIG of Staphylococcus epidermidis strain HB) (Staphylococcus epidermidis strain HB) (UniProt O70022); assay: inhibition of pSE100 phage panning on fibrinogen-coated wells by the soluble ligand; phage eluted at pH 1.8
Collagen type I [2] = assay: phage panning on coated protein in microtiter wells; bound phage eluted at pH 1.8
α2macroglobulin [3] = assay: as above
IgA [4] = assay: as above
Fibronectin [5] = assay: as above
Human fibrinogen (human) [6] = target: Human fibrinogen (human) (UniProt P02671); assay: as above
Transferrin [7] = assay: as above
Vitronectin [8] = assay: as above
[9] = target: Human serum albumin (human) (UniProt P02768); assay: as above
Lactoferrin [10] = assay: as above
Pepsin [11] = assay: as above
human IgG [12] = assay: as above
[13] = target: Bovine serum albumin (fraction V, ria grade) (bovine) (UniProt P02769); assay: as above
Elastin [14] = assay: as above
Collagen type I [15] = assay: phage panning on coated protein in microtiter wells; last wash
α2macroglobulin [16] = assay: as above
IgA [17] = assay: as above
Fibronectin [18] = assay: as above
Human fibrinogen (human) [19] = target: Human fibrinogen (human) (UniProt P02671); assay: as above
Transferrin [20] = assay: as above
Vitronectin [21] = assay: as above
[22] = target: Human serum albumin (human) (UniProt P02768); assay: as above
Lactoferrin [23] = assay: as above
Pepsin [24] = assay: as above
human IgG [25] = assay: as above
[26] = target: Bovine serum albumin (fraction V, ria grade) (bovine) (UniProt P02769); assay: as above
Elastin [27] = assay: as above

Chain of UniProt O70022 (O70022 75-656): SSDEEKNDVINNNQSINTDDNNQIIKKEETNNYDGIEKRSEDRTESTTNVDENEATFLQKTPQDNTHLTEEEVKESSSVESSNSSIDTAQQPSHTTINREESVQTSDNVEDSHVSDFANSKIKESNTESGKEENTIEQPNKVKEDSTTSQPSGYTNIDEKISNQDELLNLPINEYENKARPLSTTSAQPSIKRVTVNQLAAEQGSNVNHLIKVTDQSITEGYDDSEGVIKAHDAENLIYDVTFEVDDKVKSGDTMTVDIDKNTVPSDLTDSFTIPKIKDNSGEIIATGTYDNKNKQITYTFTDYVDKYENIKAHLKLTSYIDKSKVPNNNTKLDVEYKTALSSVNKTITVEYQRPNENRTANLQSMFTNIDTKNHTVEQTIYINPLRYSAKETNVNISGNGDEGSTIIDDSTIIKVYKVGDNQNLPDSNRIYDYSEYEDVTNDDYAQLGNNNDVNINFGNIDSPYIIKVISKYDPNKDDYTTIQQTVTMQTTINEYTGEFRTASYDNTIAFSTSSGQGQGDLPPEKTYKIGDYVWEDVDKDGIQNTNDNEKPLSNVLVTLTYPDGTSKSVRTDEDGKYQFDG
Chain of UniProt P02769 (P02769 25-607 limits assumed): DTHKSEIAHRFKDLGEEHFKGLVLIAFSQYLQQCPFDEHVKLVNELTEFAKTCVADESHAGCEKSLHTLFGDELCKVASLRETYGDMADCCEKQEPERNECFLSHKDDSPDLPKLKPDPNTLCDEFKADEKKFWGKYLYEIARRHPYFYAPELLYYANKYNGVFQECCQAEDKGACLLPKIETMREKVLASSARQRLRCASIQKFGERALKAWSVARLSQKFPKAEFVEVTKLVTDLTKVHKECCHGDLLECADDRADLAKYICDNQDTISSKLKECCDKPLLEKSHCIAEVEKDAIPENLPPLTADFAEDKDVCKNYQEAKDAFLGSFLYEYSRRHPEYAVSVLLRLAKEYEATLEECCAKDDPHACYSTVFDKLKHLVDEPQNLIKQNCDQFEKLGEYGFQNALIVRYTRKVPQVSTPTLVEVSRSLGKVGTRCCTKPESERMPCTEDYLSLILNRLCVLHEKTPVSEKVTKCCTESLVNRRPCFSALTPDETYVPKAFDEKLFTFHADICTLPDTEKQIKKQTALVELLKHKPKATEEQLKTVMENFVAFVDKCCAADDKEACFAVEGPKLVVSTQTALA
Chain of UniProt P02671 (P02671 other isoform, or with tags, fused parts or gaps limits assumed, chain 1 of 3): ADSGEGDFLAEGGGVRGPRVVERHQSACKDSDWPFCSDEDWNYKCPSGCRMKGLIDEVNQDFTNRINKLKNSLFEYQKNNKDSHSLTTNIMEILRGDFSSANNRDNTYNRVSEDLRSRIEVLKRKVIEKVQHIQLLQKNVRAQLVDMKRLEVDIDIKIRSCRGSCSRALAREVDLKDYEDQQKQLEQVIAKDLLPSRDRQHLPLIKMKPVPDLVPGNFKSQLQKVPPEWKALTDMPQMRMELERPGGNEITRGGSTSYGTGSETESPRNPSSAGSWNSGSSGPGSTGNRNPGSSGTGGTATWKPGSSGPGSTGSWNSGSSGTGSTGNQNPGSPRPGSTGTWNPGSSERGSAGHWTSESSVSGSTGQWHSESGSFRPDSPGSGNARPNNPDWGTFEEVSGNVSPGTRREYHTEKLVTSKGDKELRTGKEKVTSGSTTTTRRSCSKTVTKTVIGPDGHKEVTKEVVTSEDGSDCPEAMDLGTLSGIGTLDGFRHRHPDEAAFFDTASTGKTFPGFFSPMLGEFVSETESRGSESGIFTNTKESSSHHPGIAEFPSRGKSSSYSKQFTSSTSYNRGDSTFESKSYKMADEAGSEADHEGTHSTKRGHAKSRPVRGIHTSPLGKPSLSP
Chain of UniProt P02671 (P02675 31-491 limits assumed, chain 2 of 3, further chain): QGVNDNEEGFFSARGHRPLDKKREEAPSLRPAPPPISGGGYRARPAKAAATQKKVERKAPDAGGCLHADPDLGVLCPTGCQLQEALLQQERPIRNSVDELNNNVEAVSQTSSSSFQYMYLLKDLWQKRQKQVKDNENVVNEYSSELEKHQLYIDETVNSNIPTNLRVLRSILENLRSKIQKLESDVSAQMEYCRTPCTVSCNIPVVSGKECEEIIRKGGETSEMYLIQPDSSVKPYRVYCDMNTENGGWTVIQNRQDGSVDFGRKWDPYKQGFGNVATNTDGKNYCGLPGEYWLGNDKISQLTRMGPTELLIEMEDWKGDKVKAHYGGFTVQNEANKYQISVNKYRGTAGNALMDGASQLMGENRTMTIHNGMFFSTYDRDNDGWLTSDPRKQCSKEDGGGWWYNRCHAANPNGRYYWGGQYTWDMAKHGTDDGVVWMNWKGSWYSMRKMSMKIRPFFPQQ
Chain of UniProt P02671 (P02679 other isoform, or with tags, fused parts or gaps limits assumed, chain 3 of 3, further chain): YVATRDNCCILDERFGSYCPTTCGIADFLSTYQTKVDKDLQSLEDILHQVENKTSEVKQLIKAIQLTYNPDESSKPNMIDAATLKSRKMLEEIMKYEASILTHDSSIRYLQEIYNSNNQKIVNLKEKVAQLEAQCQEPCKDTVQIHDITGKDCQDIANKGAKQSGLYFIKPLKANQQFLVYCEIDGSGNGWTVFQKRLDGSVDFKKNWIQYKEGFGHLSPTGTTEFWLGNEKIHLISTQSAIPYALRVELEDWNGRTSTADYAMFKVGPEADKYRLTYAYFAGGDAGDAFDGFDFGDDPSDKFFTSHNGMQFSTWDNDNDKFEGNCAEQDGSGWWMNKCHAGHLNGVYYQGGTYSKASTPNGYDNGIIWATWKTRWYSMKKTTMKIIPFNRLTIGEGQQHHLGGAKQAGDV

Bovine serum albumin (fraction V, ria grade) (from UniProt P02769 25-607)
eluted phage titre at 0 µg/ml soluble ligand [1]: 76000 cfu/ml | eluted phage titre at 0.1 µg/ml soluble ligand [1]: 70000 cfu/ml | eluted phage titre at 1 µg/ml soluble ligand [1]: 93000 cfu/ml | eluted phage titre at 10 µg/ml soluble ligand [1]: 63000 cfu/ml | eluted phage titre at 100 µg/ml soluble ligand [1]: 64000 cfu/ml | eluted phage titre at 1000 µg/ml soluble ligand [1]: 69000 cfu/ml

Human fibrinogen (from UniProt P02671 20-644; P02675 31-491; P02679 27-437)
eluted phage titre at 0 µg/ml soluble ligand [1]: 76000 cfu/ml | eluted phage titre at 0.1 µg/ml soluble ligand [1]: 44000 cfu/ml | eluted phage titre at 1 µg/ml soluble ligand [1]: 36000 cfu/ml | eluted phage titre at 10 µg/ml soluble ligand [1]: 15000 cfu/ml | eluted phage titre at 100 µg/ml soluble ligand [1]: 3800 cfu/ml | eluted phage titre at 1000 µg/ml soluble ligand [1]: 300 cfu/ml

fibrinogen binding protein encoded from pSE100 (581 aa part of protein FIG of Staphylococcus epidermidis strain HB) (from UniProt O70022 75-656)
phage titre in Eluate pH 1.8 (Collagen type I [2]): 1200 cfu/ml | phage titre in Eluate pH 1.8 (α2macroglobulin [3]): 2000 cfu/ml | phage titre in Eluate pH 1.8 (IgA [4]): 68000 cfu/ml | phage titre in Eluate pH 1.8 (Fibronectin [5]): 24000 cfu/ml | phage titre in Eluate pH 1.8 (Human fibrinogen (human) [6]): 1.4e+07 cfu/ml | phage titre in Eluate pH 1.8 (Transferrin [7]): 2400 cfu/ml | phage titre in Eluate pH 1.8 (Vitronectin [8]): 2200 cfu/ml | phage titre in Eluate pH 1.8 [9]: 2200 cfu/ml | phage titre in Eluate pH 1.8 (Lactoferrin [10]): 8200 cfu/ml | phage titre in Eluate pH 1.8 (Pepsin [11]): 37000 cfu/ml | phage titre in Eluate pH 1.8 (human IgG [12]): 4400 cfu/ml | phage titre in Eluate pH 1.8 [13]: 800 cfu/ml | phage titre in Eluate pH 1.8 (Elastin [14]): 5200 cfu/ml | phage titre in the last wash (Collagen type I [15]): 600 cfu/ml | phage titre in the last wash (α2macroglobulin [16]): 200 cfu/ml | phage titre in the last wash (IgA [17]): 600 cfu/ml | phage titre in the last wash (Fibronectin [18]): 600 cfu/ml | phage titre in the last wash (Human fibrinogen (human) [19]): 11000 cfu/ml | phage titre in the last wash (Transferrin [20]): 200 cfu/ml | phage titre in the last wash (Vitronectin [21]): < 100 cfu/ml | phage titre in the last wash [22]: 800 cfu/ml | phage titre in the last wash (Lactoferrin [23]): 600 cfu/ml | phage titre in the last wash (Pepsin [24]): 180 cfu/ml | phage titre in the last wash (human IgG [25]): 400 cfu/ml | phage titre in the last wash [26]: < 100 cfu/ml | phage titre in the last wash (Elastin [27]): 800 cfu/ml

human IgG (antibody)
eluted phage titre at 0 µg/ml soluble ligand [1]: 76000 cfu/ml | eluted phage titre at 0.1 µg/ml soluble ligand [1]: 62000 cfu/ml | eluted phage titre at 1 µg/ml soluble ligand [1]: 90000 cfu/ml | eluted phage titre at 10 µg/ml soluble ligand [1]: 78000 cfu/ml | eluted phage titre at 100 µg/ml soluble ligand [1]: 73000 cfu/ml | eluted phage titre at 1000 µg/ml soluble ligand [1]: 76000 cfu/ml
